Target: T1, His-PABPC1 (UniProt P11940 1-636)
T1 construct: also called purified His-PABPC1; source: E. coli BL21 (pET28a), purified with nickel-nitrilotriacetic acid beads
Test: pull-down; purified GST-tagged EWS fragment on glutathione magnetic beads; purified His-tagged protein (PABPC1 or ERG) added, no third protein; immunoblot
Conditions: both partners purified

T1 sequence (P11940 whole entry): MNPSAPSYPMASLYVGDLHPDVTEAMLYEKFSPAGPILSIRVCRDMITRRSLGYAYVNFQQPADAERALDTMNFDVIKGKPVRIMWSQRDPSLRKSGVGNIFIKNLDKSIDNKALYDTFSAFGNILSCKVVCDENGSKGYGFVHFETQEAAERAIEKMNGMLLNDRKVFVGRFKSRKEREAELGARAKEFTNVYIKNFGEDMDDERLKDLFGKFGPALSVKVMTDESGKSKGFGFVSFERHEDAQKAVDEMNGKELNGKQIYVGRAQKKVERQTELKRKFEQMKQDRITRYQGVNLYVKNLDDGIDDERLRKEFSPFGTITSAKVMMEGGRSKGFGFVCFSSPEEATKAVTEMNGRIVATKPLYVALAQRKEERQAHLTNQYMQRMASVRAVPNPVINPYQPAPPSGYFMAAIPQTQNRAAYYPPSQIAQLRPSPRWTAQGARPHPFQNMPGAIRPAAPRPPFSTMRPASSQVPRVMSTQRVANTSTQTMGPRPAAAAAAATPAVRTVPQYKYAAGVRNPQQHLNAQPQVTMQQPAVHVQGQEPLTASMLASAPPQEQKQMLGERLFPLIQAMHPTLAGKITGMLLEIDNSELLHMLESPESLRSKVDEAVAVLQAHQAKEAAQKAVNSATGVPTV

binding result: binds
B1: GST-EWS 356 to 656 (ctEWS) (domain or fragment, UniProt Q01844 356-656, looked up)
chain: EDSDNSAIYVQGLNDSVTLDDLADFFKQCGVVKMNKRTGQPMIHIYLDKETGKPKGDATVSYEDPPTAKAAVEWFDGKDFQGSKLKVSLARKKPPMNSMRGGLPPREGRGMPPPLRGGPGGPGGPGGPMGRMGGRGGDRGGFPPRGPRGSRGNPSGGGNVQHRAGDWQCPNPGCGNQNFAWRTECNQCKAPKPEGFLPPPFPPPGGDRGRGGPGGMRGGRGGLMDRGGPGGMFRGGRGGDRGGFRGGRGMDRGGFGGGRRGGPGGPPGPLMEQMGGRRGGRGGPGKMDKGEHRQERRDRPY
notes: also called GST-ctEWS; C terminus of EWS; source: E. coli BL21 (pGEX-6p-2), purified with magnetic GSH beads

— article PMC10704431, “A complex with poly(A)-binding protein and EWS facilitates the transcriptional function of oncogenic ETS transcription factors in prostate cells” (The Journal of Biological Chemistry, 2023)
